Reference: publication PMC2647295

B1: 5TR1 (ssDNA)
DNA: GAAGTGAAAATGACAGAACACAACA
B2: 5TR2 (ssDNA)
DNA: GGCTATAGCACATGGGTAAAACGAC
B3: 5TR4 (ssDNA)
DNA: TACTGCATGCACACCACTTCAACTA
B4: 5TR3 (ssDNA)
DNA: CAAACAATCAAACAGCAGTGGGGTG

Molecular target: MUC1-5TR (unglycosylated, five MUC1 tandem repeats) (UniProt P15941 126-225)
Assay: SPR

MUC1-5TR (unglycosylated, five MUC1 tandem repeats), sequence (P15941 126-225): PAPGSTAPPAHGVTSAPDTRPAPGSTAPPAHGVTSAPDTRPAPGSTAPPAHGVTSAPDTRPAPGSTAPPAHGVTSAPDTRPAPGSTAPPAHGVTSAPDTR

| Binder | Kd [nM] |
| --- | --- |
| B1 | 21 |
| B2 | 85.2 |
| B3 | 69 |
| B4 | 83 |
